Laboratory results as given in the RNAGym collection of RNA variant scans (doi:10.1093/molbev/msab373).

B1: Azoarcus group I ribozyme (parent)
chain: GUGCCUUGCGCCGGGAAACCACGCAAGGGAUGGUGUCAAAUUCGGCGAAACCUAAGCGCCCGCCCGGGCGUAUGGCAACGCCGAGCCAAGCUUCGGCGCCUGCGCCGAUGAAGGUGUAGAGACUAGACGGCACCCACCUAAGGCAAACGCUAUGGUGAAGGCAUAGUCCAGGGAGUGGCGAAAGUCACACAAACCGG

Variants of: B1
Assay: reverse-splicing fitness (ratio to wild type); higher = more active; in vitro selection; Mg2+ level not given
Outline: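 An in vitro group I ribozyme library with randomized positions was T7-transcribed and gel-purified. In triplicate, 10 pmol RNA in EPPS pH 7.5 was reacted with 50 pmoles of a 30-nt RNA substrate for 1 h at 37 °C across several added MgCl2 levels (1–48 mM), then stopped with EDTA. Products were reverse transcribed from a substrate-complementary primer, PCR-amplified and sequenced (HiSeq 4000). Fitness is a variant's read proportion after selection over that before, normalised to wild type.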

Point of comparison: GUGCCUUGCGCCGGGAAACCACGCAAGGGAUGGUGUCAAAUUCGGCGAAACCUAAGCGCCCGCCCGGGCGUAUGGCAACGCUGAGCCAAGCUUCGGCGCCUGCGCCGAUGAAGGUGUAGGGACUAGACGGCACCCACCUAAGGCCAACGCUAUGGUGAAGGCAUAGUCUAGGGAGCGGCGAAAGUCACACAAACCGG, reverse-splicing fitness 0.0127. Against it:
- GUGCCUUGCGCCGGGAAACCACGCAAGGGAUGGUGUCAAAUUCGGCGAAACCUAAGCGCCCGCCCGGGCGUAUGGCAACGCUGAGCCAAGCUUCGGCGCCUGCGCCGAUGAAGGUGUAGGGACUAGACGGCACCCACCUAAGGCGAACGCUAUGGUGAAGGCAUAGUCCAGGGAGUGGCGAAAGUCACACAAACCGG — higher, 0.0245
- GUGCCUUGCGCCGGGAAACCACGCAAGGGAUGGUGUCAAAUUCGGCGAAACCUAAGCGCCCGCCCGGGCGUAUGGCAACGCUGAGCCAAGCUUCGGCGCCUGCGCCGAUGAAGGUGUAGGGACUAGACGGCACCCACCUAAGGCGAACGAUAUGGUGAAGGCAUAGUCCAGGGAGUGGCGAAAGUCACACAAACCGG — lower, 0.00966
- GUGCCUUGCGCCGGGAAACCACGCAAGGGAUGGUGUCAAAUUCGGCGAAACCUAAGCGCCCGCCCGGGCGUAUGGCAACGCUGAGCCAAGCUUCGGCGCCUGCGCCGAUGAAGGUGUAGGGACUAGACGGCACCCACCUAAGGCCAACGCUAUGGUGAAGGCAUAGUCGAGGGAGUGGCGAAAGUCACACAAACCGG — higher, 0.0218
- GUGCCUUGCGCCGGGAAACCACGCAAGGGAUGGUGUCAAAUUCGGCGAAACCUAAGCGCCCGCCCGGGCGUAUGGCAACGCUGAGCCAAGCUUCGGCGCCUGCGCCGAUGAAGGUGUAGGGACUAGACGGCACCCACCUAAGGCCAACGCUAUGGUGAAGGCAUAGUCUAGGGAGUGGCGAAAGUCACACAAACCGG — higher, 0.0172
- GUGCCUUGCGCCGGGAAACCACGCAAGGGAUGGUGUCAAAUUCGGCGAAACCUAAGCGCCCGCCCGGGCGUAUGGCAACGCUGAGCCAAGCUUCGGCGCCUGCGCCGAUGAAGGUGUAGGGACUAGACGGCACCCACCUAAGGCCAACGCUAUGGUGAAGGCAUAGUCGAGGGAGCGGCGAAAGUCACACAAACCGG — higher, 0.0161
- GUGCCUUGCGCCGGGAAACCACGCAAGGGAUGGUGUCAAAUUCGGCGAAACCUAAGCGCCCGCCCGGGCGUAUGGCAACGCUGAGCCAAGCUUCGGCGCCUGCGCCGAUGAAGGUGUAGGGACUAGACGGCACCCACCUAAGGCCAACGCUAUGGUGAAGGCAUAGUCGAGGGAGGGGCGAAAGUCACACAAACCGG — lower, 0.00391
- GUGCCUUGCGCCGGGAAACCACGCAAGGGAUGGUGUCAAAUUCGGCGAAACCUAAGCGCCCGCCCGGGCGUAUGGCAACGCUGAGCCAAGCUUCGGCGCCUGCGCCGAUGAAGGUGUAGGGACUAGACGGCACCCACCUAAGGCCAACGCUAUGGUGAAGGCAUAGUCGAGGGAGAGGCGAAAGUCACACAAACCGG — higher, 0.0276
- GUGCCUUGCGCCGGGAAACCACGCAAGGGAUGGUGUCAAAUUCGGCGAAACCUAAGCGCCCGCCCGGGCGUAUGGCAACGCUGAGCCAAGCUUCGGCGCCUGCGCCGAUGAAGGUGUAGGGACUAGACGGCACCCACCUAAGGCCAACGCUAUGGUGAAGGCAUAGUCUAGGGAGAGGCGAAAGUCACACAAACCGG — higher, 0.0224
- GUGCCUUGCGCCGGGAAACCACGCAAGGGAUGGUGUCAAAUUCGGCGAAACCUAAGCGCCCGCCCGGGCGUAUGGCAACGCUGAGCCAAGCUUCGGCGCCUGCGCCGAUGAAGGUGUAGGGACUAGACGGCACCCACCUAAGGCCAACGCUAUGGUGAAGGCAUAGUCUAGGGAGGGGCGAAAGUCACACAAACCGG — lower, 0.00314
- GUGCCUUGCGCCGGGAAACCACGCAAGGGAUGGUGUCAAAUUCGGCGAAACCUAAGCGCCCGCCCGGGCGUAUGGCAACGCUGAGCCAAGCUUCGGCGCCUGCGCCGAUGAAGGUGUAGGGACUAGACGGCACCCACCUAAGGCCAACGCUAUGGUGAAGGCAUAGUCCAGGGAGGGGCGAAAGUCACACAAACCGG — lower, 0.00356
- GUGCCUUGCGCCGGGAAACCACGCAAGGGAUGGUGUCAAAUUCGGCGAAACCUAAGCGCCCGCCCGGGCGUAUGGCAACGCUGAGCCAAGCUUCGGCGCCUGCGCCGAUGAAGGUGUAGGGACUAGACGGCACCCACCUAAGGCCAACGCUAUGGUGAAGGCAUAGUCCAGGGAGAGGCGAAAGUCACACAAACCGG — lower, 0.0109
- GUGCCUUGCGCCGGGAAACCACGCAAGGGAUGGUGUCAAAUUCGGCGAAACCUAAGCGCCCGCCCGGGCGUAUGGCAACGCUGAGCCAAGCUUCGGCGCCUGCGCCGAUGAAGGUGUAGGGACUAGACGGCACCCACCUAAGGCCAACGCUAUGGUGAAGGCAUAGUCCAGGGAGCGGCGAAAGUCACACAAACCGG — lower, 0.0121
- GUGCCUUGCGCCGGGAAACCACGCAAGGGAUGGUGUCAAAUUCGGCGAAACCUAAGCGCCCGCCCGGGCGUAUGGCAACGCUGAGCCAAGCUUCGGCGCCUGCGCCGAUGAAGGUGUAGGGACUAGACGGCACCCACCUAAGGCCAACGCUAUGGUGAAGGCAUAGUCAAGGGAGCGGCGAAAGUCACACAAACCGG — lower, 0.00742
- GUGCCUUGCGCCGGGAAACCACGCAAGGGAUGGUGUCAAAUUCGGCGAAACCUAAGCGCCCGCCCGGGCGUAUGGCAACGCUGAGCCAAGCUUCGGCGCCUGCGCCGAUGAAGGUGUAGGGACUAGACGGCACCCACCUAAGGCCAACGCUAUGGUGAAGGCAUAGUCAAGGGAGGGGCGAAAGUCACACAAACCGG — lower, 0.00332
